Target: biotinylated TGPAvi (Galaxea fascicularis (engineered …, biotin on the Avi-tag (enzymatic biotinylation with BirA)))
Test: BLI

Kd: 26 nM
koff: 0.014 s⁻¹
kon: 530000 M⁻¹ s⁻¹
B1: Sb32 (VHH)
VHH: QVQLVESGGGLVQAGGSLRLSCAASGFPVGQQKMTWYRQAPGKEREWVAAITSAGWFTHYADSVKGRFTISRDNAKNTVYLQMNSLKPEDTAVYYCTVKVGAEYAGQGTQVTVSA
